T1: SRSF1-m4 (11-196 quadruple Arg to Ala mutant) (Homo sapiens, UniProt Q07955 SEQ:2-187)
T1 chain: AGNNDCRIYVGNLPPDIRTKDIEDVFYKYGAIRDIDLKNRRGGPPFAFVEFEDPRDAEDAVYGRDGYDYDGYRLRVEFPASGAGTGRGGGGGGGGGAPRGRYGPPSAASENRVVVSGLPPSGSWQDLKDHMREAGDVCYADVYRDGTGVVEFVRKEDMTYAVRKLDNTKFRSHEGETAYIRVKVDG


Assays:
[1] = molecular target: MAGOH (UniProt P61326 P61326:1-146); assay: UV crosslinking; negative control protein; details: tags: hexa-histidine, E. coli BL21(DE3)-RP; label: 5'-32P
Source text: (§1) (A,B) Protein:RNA UV crosslinking assays using purified recombinant proteins and 32P-end-radiolabeled G4C2×5 (A) and C4G2×5 (B) repeat RNA probes. Proteins are visualised on SDS-PAGE stained with Coomassie blue (left panels) and covalently linked RNA:protein complexes by autoradiography on Phospholmages (Right panels). UV exposure is indicated by +. […] Nuclei are stained in blue by DAPI. Scale bar: 3 μm;
(§2) We performed in vitro UV-crosslinking assays using purified recombinant proteins and synthetic G4C2×5 and C4G2×5 RNA probes to investigate direct protein:RNA interactions. […] Purified proteins were incubated with 5′-end 32P-radiolabelled G4C2×5 (FIG. 20a) or C4G2×5 (FIG. 20b) RNA probes prior to irradiation with UV where indicated (+) and resolved by SDS-PAGE.

[2] = molecular target: SRSF1 (11-196) (Homo sapiens, UniProt Q07955 SEQ:11-196); assay: UV crosslinking; no signal without UV; details: tags: hexa-histidine, E. coli BL21(DE3)-RP; label: 5'-32P
Source text: as §1, §2

[3] = molecular target: T1, SRSF1-m4 (11-196 quadruple Arg to Ala …); assay: UV crosslinking; details: tags: hexa-histidine, E. coli BL21(DE3)-RP; label: 5'-32P
Source text: (§3) Histone H3 is used to check for potential nuclear contamination. (g) Cytoplasmic and total G4C2-repeat sense transcript levels were normalized to Tub84b levels in G4C2×36+Ctrl-RNAi or G4C2×36+SRSF1⁷⁶-RNAi Drosophila in triplicate experiments prior to plotting as a ratio to account for potential changes in mRNA transcription/stability (mean±SEM; paired t-test; N (qRT-PCR reactions)=3).
(§4) N2A cells were transfected with FLAG control, FLAG-tagged SRSF1 or FLAG-tagged SRSF1-m4 and various lengths of sense or antisense repeat transcript constructs prior to fixing of ribonucleoprotein complexes. Cell extracts were then subjected to anti-FLAG immunoprecipitation under the same conditions used in the co-immunoprecipitation of NXF1 (FIG. 6g) prior to the qRT-PCR analysis of SRSF1-crosslinked RNA molecules.

[4] = molecular target: ALYREF (Homo sapiens, UniProt Q86V81 Q86V81:1-257); assay: UV crosslinking
[5] = molecular target: T1, SRSF1-m4 (11-196 quadruple Arg to Ala …); assay: UV crosslinking; mutant position printed R93,94,117,118A in text, R90,93,117,118A in FIG. 13; details: tags: hexa-histidine, E. coli BL21(DE3)-RP; label: 5'-32P
Source text: as §3, §4

Chain of MAGOH (P61326 whole entry, one chain of several): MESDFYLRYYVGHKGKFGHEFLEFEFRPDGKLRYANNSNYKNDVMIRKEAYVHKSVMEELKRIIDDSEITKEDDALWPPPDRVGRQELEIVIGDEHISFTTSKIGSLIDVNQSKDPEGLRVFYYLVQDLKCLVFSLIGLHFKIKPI

Binder	binding result [1]	binding result [2]	binding result [3]	binding result [4]	binding result [5]
CCCCGGCCCCGGCCCCGGCCCCGGCCCCGG (ssRNA) [C4G2x5 RNA]	no binding	binds	binds	binds	
GGGGCCGGGGCCGGGGCCGGGGCCGGGGCC (ssRNA) [G4C2x5 RNA]	no binding	binds		binds	binds

— patent US20190194660, “INHIBITORS OF SRSF1 TO TREAT NEURODEGENERATIVE DISORDERS” (University of Sheffield, published 2019)
